T1: 血清淀粉样蛋白A (Serum amyloid A, SAA) (UniProt P0DJI8 19-122, limits assumed)
T1 construct: Bought antigen
T1 sequence (looked up): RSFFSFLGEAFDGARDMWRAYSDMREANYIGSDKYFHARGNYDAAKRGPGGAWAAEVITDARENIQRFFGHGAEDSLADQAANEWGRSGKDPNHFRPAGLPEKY

B1: Anti-SAA 9G5mut1 (antibody, mouse IgG2a, kappa)
heavy: EVHLQQSGAELVTPGASVKLSCTASGFNIKDTYMHWVKQRPEQGLEWIGRIDPANGNTKYDPKFQGKATMTADTSSNTAYLQLSSLTSEDTAVYYCARGGNYDWGQGTTLSVSSAKTTAPSVYPLAPVCGDTTGSSVTLGCLVKGYFPEPVTLTWNSGSLSSGVHTFPAVLQSDLYTLSSSVTVTSSTWPSQSITCNVAHPASSTKVDKKIEPRGPTIKPCPPCKCPAPNLLGGPSVFIFPPKIKDVLMISLSPIVTCVVVDVSEDDPDVQISWFVNNVEVHTAQTQTHREDYNSTLRVVSALPIQHQDWMSGKEFKCKVNNKDLPAPIERTISKPKGSVRAPQVYVLPPPEEEMTKKQVTLTCMVTDFMPEDIYVEWTNNGKTELNYKNTEPVLDSDGSYFMYSKLRVEKKNWVERNSYSCSVVHEGLHNHHTTKSFSRTPGK
light: DIVLTQSPASLAVSLGQRATISCKASQSVDYDGYSYLNWYQQKPGQPPKLLISAASNLESGIPARFSGSGSGTDFTLNIHPVEEEDAATYYCQQSNEDPYTFGGGTKLQIKRADAAPTVSIFPPSSEQLTSGGASVVCFLNNFYPKDINVKWKIDGSERQNGVLNSWTDQDSKDSTYSMSSTLTLTKDEYERHNSYTCEATHKTSTSPIVKSFNRNEC
notes: Recombinant monoclonal antibody made in CHO cells, a mutant of Anti-SAA 9G5
B2: Anti-SAA 9G5mut2 (antibody, mouse IgG2a, kappa)
heavy: B1 heavy
light: B1 light with I21L
notes: as for B1
B3: Anti-SAA 4B3mut1 (antibody, mouse IgG1, kappa, V domains shown)
VH: QVQLQQSGAELVKPGASVKLSCKTSGYTFTNKYIYWLKQRPGQGLEWIGEIDPSNGATKFNEKFTNKATLTVDRSSTTAYVELSSLTSEDSAVYYCARGAYWGHGTLVTVSA
VL: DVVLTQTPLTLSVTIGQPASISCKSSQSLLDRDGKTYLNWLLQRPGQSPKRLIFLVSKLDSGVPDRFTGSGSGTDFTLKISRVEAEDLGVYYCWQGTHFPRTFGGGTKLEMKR
notes: Recombinant monoclonal antibody made in CHO cells, a mutant of Anti-SAA 4B3

Data on three molecules can be found in CN116836273A (DONGGUAN PENGZHI BIOTECHNOLOGY CO LTD, dated 2023).

Where a chain is given by its changes, count along the chain named.

In general, Kd refers to the equilibrium constant for the complex coming apart. A higher Kd goes with lower affinity. As usually defined, the koff is a measure of how fast the partners let go of each other. What is called kon is a measure of how fast the partners come together. The low end stands for slower complex formation, the high end for faster complex formation.

One assay addresses T1, 血清淀粉样蛋白A (Serum amyloid A, SAA). Put plainly: indirect ELISA, SAA coated at 2 ug/ml, antibody at 0 ng/ml (blank). On the technique in general: ELISA stands for enzyme-linked immunosorbent assay.
For B1, the OD is 0.011 OD450 (ref. 630 nm).

Turning to B2, the OD was 0.011 OD450 (ref. 630 nm).

B3: the OD was 0.007 OD450 (ref. 630 nm).

A further assay has the same target. Put plainly: indirect ELISA, SAA coated at 2 ug/ml, antibody at 60 ng/ml.
Turning to B1, the OD is 2.26 OD450 (ref. 630 nm).

On to B2, for which the OD was 2.31 OD450 (ref. 630 nm).

Consider B3, for which the OD was 2.21 OD450 (ref. 630 nm).

For another assay the target is unchanged. Put plainly: indirect ELISA, SAA coated at 2 ug/ml, antibody at 30 ng/ml.
For the molecule B1, the OD was 1.95 OD450 (ref. 630 nm).

With B2, the OD is 2.01 OD450 (ref. 630 nm).

Turning to B3, the OD was 1.51 OD450 (ref. 630 nm).

The target is the same in the next assay. Put plainly: BLI, antibody captured on AMC sensor, SAA in solution.
The molecule B1 returned a Kd of 0.906 nM, a koff of 6.67e-05 s⁻¹ and a kon of 73600 M⁻¹ s⁻¹.

As to B2, the dissociation constant (Kd) stood at 0.875 nM, the dissociation rate constant (koff) was 6.52e-05 s⁻¹ and the association rate constant (kon) was 74500 M⁻¹ s⁻¹.

In turn, B3 yielded a dissociation constant Kd of 0.897 nM, an off-rate (koff) of 6.75e-05 s⁻¹ and a kon of 75200 M⁻¹ s⁻¹.

The next assay has the same target. Put plainly: indirect ELISA, SAA coated at 2 ug/ml, antibody at 3.75 ng/ml.
With B1, the OD was 0.474 OD450 (ref. 630 nm).

Consider B2, for which the OD is 0.501 OD450 (ref. 630 nm).

For the molecule B3, the OD is 0.386 OD450 (ref. 630 nm).

The target is the same in the next assay. Put plainly: indirect ELISA, SAA coated at 2 ug/ml, antibody at 7.5 ng/ml.
For the molecule B1, the OD is 0.767 OD450 (ref. 630 nm).

As to B2, the OD is 0.801 OD450 (ref. 630 nm).

B3: the OD was 0.635 OD450 (ref. 630 nm).

Another assay has the same target. Put plainly: indirect ELISA, SAA coated at 2 ug/ml, antibody at 15 ng/ml.
Consider B1, for which the OD was 1.23 OD450 (ref. 630 nm).

Regarding B2, the OD is 1.3 OD450 (ref. 630 nm).

For B3, the OD is 1.13 OD450 (ref. 630 nm).
